Laboratory results published in the nanobody polyreactivity screen of Harvey et al. (2022).

Experiment: yeast display, Sf9 membrane polyspecificity reagent, FACS + sequencing; frameworks hold sequencing errors
How it was run: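 Synthetic nanobody libraries on Saccharomyces cerevisiae BJ5465 were galactose-induced for 36–48 hours, stained 1 hour at 4 °C with 10% biotinylated, detergent-solubilized Sf9 membrane reagent and enriched on streptavidin microbeads. FACS then separated cells into low and high (top ~1%) gates by anti-HA (expression) and streptavidin (reagent binding) fluorescence. Genes were colony-PCR amplified, MiSeq 2 × 250 sequenced and CDR-length filtered. A clone's polyreactivity label is that of its gate of origin.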
In the case of “QVQLVESGGGLVQAGGSLRLSCAASGLTFVWYAMGWYRQAPGKERELVASITRRGVSTYADSVKGRFTISRDNAKNTVYLQMNSLKPEDTAVYYCKAQLIYKKGWYDYWGQGTQVTVSS”, the “polyreactivity (PSR sort gate)” value is reported as “high polyreactivity”.
With “QVQLVESGGGLVQAGGSLRLSCAASGLTFVYYAMGWYRQAPGKERELVATISWDGGSTYYADSVKGRFTISRDNAKNTVYLQLNRLKPEDTAVYYCNKYVFDRYIYETEYDYWGQGTQVTVSS” the “polyreactivity (PSR sort gate)” value was “high polyreactivity”.
In the case of “QVQLVESGGGLVQAGGSLRLSCAASGLTFWDNAMGWYRQARGKERELVAAIRGGGSTYYADSVKGRFTISRDNAKNTVYLQMNSIIPEDTAVYYCNKQYWYWSNTLTIRDYWGQGTQVTVSS”, the “polyreactivity (PSR sort gate)” value is reported as “low polyreactivity”.
In the case of “QVQLVESGGGLVQAGGSLRLSCAASGLTFWLNAMGWYRQAPGKERELVAAIRYSGGGTYADSVKGRFTISRDNAKNTVYLQMNSLKPEDPAVYYCAALYNLGYPQFDYWGQGTQVTVSS”, the “polyreactivity (PSR sort gate)” value is reported as “low polyreactivity”.
In the case of “QVQLVESGGGLVQAGGSLRLSCAASGLTFYAYAMGWYRQAPGKERELVAAIRWSGGRTYYADSVKGRFTISRDTEKNTVYLQMNSLKPEDTAVYYCAAELSWRLYDYEYWGQGTQVTVSS”, the “polyreactivity (PSR sort gate)” value is reported as “low polyreactivity”.
With “QVQLVESGGGLVQAGGSLRLSCAASGLTFYAYAMGWYRQAPGKERELVAGISRSGGRTYYADSVKGRFTISRDNAKNTVYLQMNSLKPEDTAVYYCAAGIPVTSRFYGMDWGQGTQVTVSS” the “polyreactivity (PSR sort gate)” value was “high polyreactivity”.
In the case of “QVQLVESGGGLVQAGGSLRLSCAASGLTFYCYAMGWYRQAPGKERELVAAITSGDSTYYADSVKGRFTISRDNAKNTVYLQMNSLKPEDTAVYYCAAVGGYPRYGYWGQGTQVTVSS”, the “polyreactivity (PSR sort gate)” value is reported as “high polyreactivity”.
For “QVQLVESGGGLVQAGGSLRLSCAASGLTFYGYAMGWYRQAPGKERELVAAIRWSGGRTYYADSVKGRFTISRDNAKNTVYLQMNSLKPEDTAVYYCAADYSRYYGGDYWGQGTQVTVSS”, the “polyreactivity (PSR sort gate)” value was “low polyreactivity”.
For “QVQLVESGGGLVQAGGSLRLSCAASGLTFYGYVMGWYRQAPGKEWELVASISRSGGRTYYADSVKGRFTISRDNAKNTVFLQMNSLKPEDTAVYYCAKYLSRQSGDGEYDYWGQGTQVTVSS”, the “polyreactivity (PSR sort gate)” value was “low polyreactivity”.
With “QVQLVESGGGLVQAGGSLRLSCAASGLTFYHYTMGWYRQAPGKERELVAAITKNGGSTYYADSVKGRFTISRDNAKNTVYLQMNSLKPEDTAVYYCNVGPRRVDRSRAASSDYDYWGQGTQVTVSS” the “polyreactivity (PSR sort gate)” value was “high polyreactivity”.
With “QVQLVESGGGLVQAGGSLRLSCAASGLTFYKNAMGWYSQAPGKERELVAAITQSGGSTYYADSVKGRFTISRDNAKNTVYLQMNSLKPEDTAVYYCAAATYLNGNNYYWGQGTQVTVSS” the “polyreactivity (PSR sort gate)” value was “high polyreactivity”.
With “QVQLVESGGGLVQAGGSLRLSCAASGLTFYPYAMGWSRQAPGKERELVAAINWSGTTTYYADSVKGRFTISRDNAKNTVYLQMNSLKPEDTAVYYCNADVYYEPTTGYYLWDYDYWGQGTQVTVSS” the “polyreactivity (PSR sort gate)” value was “low polyreactivity”.
In the case of “QVQLVESGGGLVQAGGSLRLSCAASGLTFYPYAMGWYRQAPGKERELVAAITRSGTSTFYADSVKGRFTISRDNAKNTVYLQMNSLKPEETAVYYCAKGYFFVGTDWESYYWGQGTQVTVSS”, the “polyreactivity (PSR sort gate)” value is reported as “low polyreactivity”.
In the case of “QVQLVESGGGLVQAGGSLRLSCAASGLTFYQNAMGWYRPAPGTERELVAGISSVGSTKYADSVKGRFTISRDNAKNTVYLQMNSLKPEDTAVYYCAPRFYAFRKGYYYWGQGTQVTVSS”, the “polyreactivity (PSR sort gate)” value is reported as “high polyreactivity”.
For “QVQLVESGGGLVQAGGSLRLSCAASGLTFYSYAMGWYRQAPGKERELVAAISKRGTNTFYADSAKGRFTISRDNAKNTVYLQMNSLKPEDTAVYYCAVDLSDSDYYWGQGTQVTVSS”, the “polyreactivity (PSR sort gate)” value was “low polyreactivity”.
For “QVQLVESGGGLVQAGGSLRLSCAASGLTFYSYAMGWYRQAPGKERELVAAITISGGSTYADSVKGRFTISRDNAKNTVYLQMNSLKPEDTAVYYCAVDDFRNPDYDSWGQGTQVTVSS”, the “polyreactivity (PSR sort gate)” value was “low polyreactivity”.
With “QVQLVESGGGLVQAGGSLRLSCAASGLTFYSYAMGWYRQAPGKERELVATIRWSGGSTYYADSVKGRFTISRDNAKNTVYLQMNSLKPEDTAVYFCAADRRINYDGLDMDYWGQGTQVTVSS” the “polyreactivity (PSR sort gate)” value was “low polyreactivity”.
With “QVQLVESGGGLVQAGGSLRLSCAASGLTFYTYAMGWYRQAPGKERELVAAISSGGSTNYADSVKGRFTISRDNAKNTVYLQMNSLKPEDTAVYYCASGGQYYIIRYDYWGQGTQVTVSS” the “polyreactivity (PSR sort gate)” value was “low polyreactivity”.
For “QVQLVESGGGLVQAGGSLRLSCAASGLTFYWYAMGWYRQAPGKERELVAAITSTGSTYYADSVKGRFTISRDNAKNTVYLQMNSLKPEDTAVYYCNADFPANWGWDYDYWGQGTQVTVSS”, the “polyreactivity (PSR sort gate)” value was “low polyreactivity”.
For “QVQLVESGGGLVQAGGSLRLSCAASGLTFYYNAMGWYRQAPGKERELVAVIRGSGGSTYYADSVKGRFTISRDNAKNTVYLQMNSLKPEDTAVYYCAARVAASRRYYYWGQGTQVTVSS”, the “polyreactivity (PSR sort gate)” value was “high polyreactivity”.
In the case of “QVQLVESGGGLVQAGGSLRLSCAASGLTFYYYAMGWYRQAPGKERELVADISYSGGSTYYADSVKGRFTISRDNAKNTVYLQMNSLKPEDTAVYYCAAEGGYTISGSYDYWGQVTQVTVSS”, the “polyreactivity (PSR sort gate)” value is reported as “low polyreactivity”.
For “QVQLVESGGGLVQAGGSLRLSCAASGLTFYYYAMGWYRQAPGKERELVARISSGTSTYYADSVKGRFTISRDNAKNTVYLQMNCMKPEDTAVYYCTARRKLGSTHGPWGGLEYWGEGTQVTVSS”, the “polyreactivity (PSR sort gate)” value was “low polyreactivity”.
With “QVQLVESGGGLVQAGGSLRLSCAASGLTFYYYAMGWYRQAPGKERQLVAAISRSGGSTYYADSVKGRFTISRDNAKNTVYLQMNSLKPEDTAVYYCAAREPYEGQRYYYEYYYWGQGTQVTVSS” the “polyreactivity (PSR sort gate)” value was “high polyreactivity”.
With “QVQLVESGGGLVQAGGSLRLSCAASGLTIFVNAMGWYRQAPGKERELVATISGGGSTYYADSVKGRFTISRDNAKNTVYLQMNSLKPEDTAVYYCNAADVGGPWWYPYTYNYWGQGTQVTVSS” the “polyreactivity (PSR sort gate)” value was “low polyreactivity”.
In the case of “QVQLVESGGGLVQAGGSLRLSCAASGLTIGSNVMGWYRQAPGKERELVAAISQSGGRTYYADSVKGRFTISRDNAKNTVYLQMNSLKQEDTAVYYCAKRLRSFYGRPMGDYWGQGTQVTVSS”, the “polyreactivity (PSR sort gate)” value is reported as “high polyreactivity”.
For “QVQLVESGGGLVQAGGSLRLSCAASGLTIRNYAMGWYRQAPGKERELVAAITVSGGSTYYADSVKGRFTISRDNAKNTVYLQMNSLKPEDTAVYYSSARVIHTTYSRNYYYWGQGTQVTVSS”, the “polyreactivity (PSR sort gate)” value was “high polyreactivity”.
With “QVQLVESGGGLVQAGGSLRLSCAASGLTIVWYGMVWYRQAPGKERELVAAITRGGSTYYADSVKGRFTISRDNAKNTVYLQMNSLKPEDTAVYYCAATSTYRARFEYWGQGTQVTVSS” the “polyreactivity (PSR sort gate)” value was “high polyreactivity”.
With “QVQLVESGGGLVQAGGSLRLSCAASGLTIWRYALGWYRQAPGKEREFVATISQNGGRTYYADSVKGRFTISRDNAKNTVYVQMNSLKPEDTAVYYCADDDWRWGYDYWGQGTQVTVSS” the “polyreactivity (PSR sort gate)” value was “high polyreactivity”.
For “QVQLVESGGGLVQAGGSLRLSCAASGLTIYHYSMGCYRQAPGKERELGAAISGNGVSTYYADSVKGRFTISRDNAKNTVYLQMNSLNPEDTAVYYCNVVFRFNSFDFYYWGLGTQVTVSS”, the “polyreactivity (PSR sort gate)” value was “high polyreactivity”.
With “QVQLVESGGGLVQAGGSLRLSCAASGLTIYPNAMGWYRQAPGKERELVAAITYSGDTYYADSVKGRFTISRDNAKNTVYLQMNSLKPEDTAVYYCATDVDWAYGYQYEYWGQGTQVTVSS” the “polyreactivity (PSR sort gate)” value was “low polyreactivity”.
In the case of “QVQLVESGGGLVQAGGSLRLSCAASGLTLDPYAMGWSRQAPGKERELVAAISWSGGGTTYADSVKGRFTISRDNAMNTVYLQMNSLKPEDTAVYYCAAAAPHLSAKMDYWGQGTQVTVSS”, the “polyreactivity (PSR sort gate)” value is reported as “low polyreactivity”.
For “QVQLVESGGGLVQAGGSLRLSCAASGLTLFYYVMGWYRQAPGKERELVAANTTSGGRTYYADSVKGRFTISRDNAKHTVYLQMNSLKPEDTAVYYCAAQSSVAYIHTPTYRYDYWGQGTQVTVSS”, the “polyreactivity (PSR sort gate)” value was “high polyreactivity”.
